Test [1] deals with RET^C634R extracellular domain dimer (human RET residues 1-635 with C634R, C86R and C216S) (human) (UniProt P07949). Briefly: SEC-MALS; Superdex 200 10/300 GL, 0.25 ml/min, RT, 20 mM Hepes pH 7.5, 100 mM NaCl, 1 mM CaCl2. A general note: Size exclusion chromatography separates by hydrodynamic size, large species first.
For test [2], the target named is Fc-GDF15/GFRAL complex (formed beforehand) (human) (UniProt Q99988). Briefly: BLI; Fc-GDF15 (15 uM) immobilised on anti-hIgG Fc capture biosensors, saturated with GFRAL (3 uM), then RET^C634R 0.3-42 uM; saturation signals fitted to a sigmoidal model.
The target of test [3] is GDF15/GFRAL complex (Homo sapiens) (UniProt Q99988). To be noted: cited from earlier work.
The target of test [4] is T1, WT RET extracellular domain (human RET residues 1-635) (human, UniProt P07949 29-635, glycosylated (near-native glycans)).
T1 construct: signal peptide in the construct; human RET extracellular domain, residues 1-635; TEV site before the His8-Flag tags; also called RET^WT; RET^WT ECD; source: HEK293T, transient expression, secreted; purified (Ni-NTA, anti-Flag)
T1 sequence (P07949 29-635): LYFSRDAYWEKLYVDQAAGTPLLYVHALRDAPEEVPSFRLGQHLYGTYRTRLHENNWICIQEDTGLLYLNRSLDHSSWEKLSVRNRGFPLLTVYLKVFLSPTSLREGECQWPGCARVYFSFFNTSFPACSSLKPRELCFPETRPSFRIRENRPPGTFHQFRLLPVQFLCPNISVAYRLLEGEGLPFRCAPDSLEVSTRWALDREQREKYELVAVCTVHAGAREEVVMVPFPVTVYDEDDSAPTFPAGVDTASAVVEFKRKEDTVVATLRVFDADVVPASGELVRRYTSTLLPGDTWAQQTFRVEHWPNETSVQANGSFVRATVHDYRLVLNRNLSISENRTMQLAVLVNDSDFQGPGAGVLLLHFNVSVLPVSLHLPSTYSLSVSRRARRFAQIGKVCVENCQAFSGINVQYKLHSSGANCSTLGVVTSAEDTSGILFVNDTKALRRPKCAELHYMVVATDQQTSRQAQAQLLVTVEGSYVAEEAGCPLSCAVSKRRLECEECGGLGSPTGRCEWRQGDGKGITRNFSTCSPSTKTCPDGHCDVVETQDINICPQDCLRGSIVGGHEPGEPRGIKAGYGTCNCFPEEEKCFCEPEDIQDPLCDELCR
Briefly: native gel or EMSA; Blue Native PAGE; Fc-GDF15 dimer 2 uM + GFRAL 4 uM for 15 min (with or without thrombin), then RET^WT monomer 4 uM or RET^C634R dimer 2 uM; RET + copurified GDNF/GFRα1 at 1:1; 30 min at RT; run at 100 V, 4 °C; also after 5 min heating at 50-85 °C for melting curves. To be noted: both partners purified. For orientation: A gel shift assay detects complexes by their altered migration in electrophoresis.

Take “RET^C634R extracellular domain dimer (human RET residues 1-635 with C634R, C86R and C216S) (from UniProt P07949 29-635) (domain or fragment)”: the stoichiometry N (as a rule, a count of units in the complex or per binding partner) in test [1] was found to be 2. Moreover, in test [2], the equilibrium dissociation constant (Kd) (in general, a measure of binding affinity in units of concentration) amounted to 8.5 µM.

For the molecule RET ECD (from UniProt P07949), the Kd in test [3] is 3.2 µM.

B1: GDF15/GFRAL complex with the Fc removed by thrombin (formed beforehand) (complex, human)
chain 1: ARARNGDHCPLGPGRCCRLHTVRASLEDLGWADWVLSPREVQVTMCIGACPSQFRAANMHAQIKTSLHRLKPDTVPAPCCVPASYNPMVLIQKTDTGVSLQTYDDLLAKDCHCI
chain 2: SQTNNCTYLREQCLRDANGCKHAWRVMEDACNDSDPGDPCKMRNSSYCNLSIQYLVESNFQFKECLCTDDFYCTVNKLLGKKCINKSDNVKEDKFKWNLTTRSHHGFKGMWSCLEVAEACVGDVVCNAQLASYLKACSANGNPCDLKQCQAAIRFFYQNIPFNIAQMLAFCDCAQSDIPCQQSKEALHSKTCAVNMVPPPTCLSVIRSCQNDELCRRHYRTFQSKCWQRVTRKCHEDENCISTLSKQDLTCSGSDDCKAAYIDILGTVLQVQCTCRTITQSEESLCKIFQHMLHRKSCFNYPTLSNVKGMALYTRKHANKITLTGFHSPFNGE
notes: human GDF15, residues 195-308; human GFRAL, residues 19-351; as m4; not shown: modified Fc, N-terminal, cleaved; copies: 2 + 2
With B1, the binding result in test [4] was “binds”.
